In patent US6562788B1, “Topoisomerase II inhibitor” (Laboratoire L. Lafon, priority 1998, dated 2003):

Experiments:
topoisomerase II = settings: prior art, literature; cited from earlier work
[1] = biological target: T1, human topoisomerase II alpha (Homo sapiens, UniProt P11388); test: relaxation of supercoiled plasmids, topoisomerase II activity assay; type: biochemical; settings: peptide concentration of 0.5 μM
Text: (§1) Two enzymatic assays make it possible to estimate the effect of the pentides on topoisomerase II activity: relaxation of supercoiled plasmids and decatenation of kinetoplast DNA (Wang, J. C., An. Rev. Biochem., 54: 665-697, 1985; Maxwell, A., Advances in Protein Chemistry, 38: 69-107, 1986; Liu, L. F., Cell, 19: 697-707, 1980).

[2] = biological target: T2, topoisomerase II of yeast (Saccharomyces cerevisiae, UniProt P06786); test: as above; type: biochemical; settings: peptide concentration of 0.5 μM
T2 sequence (P06786 1-1428): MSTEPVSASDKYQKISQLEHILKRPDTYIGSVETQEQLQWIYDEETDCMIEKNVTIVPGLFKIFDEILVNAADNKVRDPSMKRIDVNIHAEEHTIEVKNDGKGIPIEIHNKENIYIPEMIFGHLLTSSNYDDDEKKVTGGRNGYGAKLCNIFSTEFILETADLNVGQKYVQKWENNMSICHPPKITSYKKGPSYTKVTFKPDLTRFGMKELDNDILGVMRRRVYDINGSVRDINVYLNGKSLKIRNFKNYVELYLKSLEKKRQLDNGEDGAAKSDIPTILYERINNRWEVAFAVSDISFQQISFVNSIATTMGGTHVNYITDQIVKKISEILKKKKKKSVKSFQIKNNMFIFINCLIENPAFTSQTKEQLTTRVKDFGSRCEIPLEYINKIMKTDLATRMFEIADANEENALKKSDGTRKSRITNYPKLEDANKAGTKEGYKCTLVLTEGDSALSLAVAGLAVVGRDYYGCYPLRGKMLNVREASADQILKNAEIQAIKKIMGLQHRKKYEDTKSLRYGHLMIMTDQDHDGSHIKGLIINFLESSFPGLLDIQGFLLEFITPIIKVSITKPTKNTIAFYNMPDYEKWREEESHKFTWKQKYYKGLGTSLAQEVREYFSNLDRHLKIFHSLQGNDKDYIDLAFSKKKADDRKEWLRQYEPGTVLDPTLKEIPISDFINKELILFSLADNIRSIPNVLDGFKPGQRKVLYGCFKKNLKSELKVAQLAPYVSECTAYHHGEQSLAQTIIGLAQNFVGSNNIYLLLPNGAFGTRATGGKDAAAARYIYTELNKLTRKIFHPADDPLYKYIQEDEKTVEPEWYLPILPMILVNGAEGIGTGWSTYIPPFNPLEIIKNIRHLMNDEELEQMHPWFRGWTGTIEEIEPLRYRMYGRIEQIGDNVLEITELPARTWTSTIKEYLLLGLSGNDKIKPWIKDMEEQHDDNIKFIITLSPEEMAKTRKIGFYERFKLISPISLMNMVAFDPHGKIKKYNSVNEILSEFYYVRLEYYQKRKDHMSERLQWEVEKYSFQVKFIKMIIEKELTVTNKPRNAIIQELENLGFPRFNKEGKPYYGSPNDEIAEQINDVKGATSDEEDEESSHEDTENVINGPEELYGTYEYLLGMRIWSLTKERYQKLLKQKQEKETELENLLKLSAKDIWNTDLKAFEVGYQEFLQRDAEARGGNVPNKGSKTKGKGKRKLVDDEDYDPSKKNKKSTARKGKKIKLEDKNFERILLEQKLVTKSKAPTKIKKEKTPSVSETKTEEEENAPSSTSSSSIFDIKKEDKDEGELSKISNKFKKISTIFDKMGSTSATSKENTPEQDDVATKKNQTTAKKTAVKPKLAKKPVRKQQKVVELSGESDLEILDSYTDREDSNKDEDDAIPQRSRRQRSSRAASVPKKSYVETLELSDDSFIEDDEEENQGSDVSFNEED
Text: as §1

[3] = biological target: T1, human topoisomerase II alpha; test: decatenation of kinetoplast DNA, topoisomerase II activity assay; type: biochemical; settings: peptide concentration of 0.5 μM
Text: as §1

[4] = biological target: T2, topoisomerase II of yeast; test: as above; type: biochemical; settings: peptide concentration of 0.5 μM
Text: as §1

T1 sequence (P11388 whole entry): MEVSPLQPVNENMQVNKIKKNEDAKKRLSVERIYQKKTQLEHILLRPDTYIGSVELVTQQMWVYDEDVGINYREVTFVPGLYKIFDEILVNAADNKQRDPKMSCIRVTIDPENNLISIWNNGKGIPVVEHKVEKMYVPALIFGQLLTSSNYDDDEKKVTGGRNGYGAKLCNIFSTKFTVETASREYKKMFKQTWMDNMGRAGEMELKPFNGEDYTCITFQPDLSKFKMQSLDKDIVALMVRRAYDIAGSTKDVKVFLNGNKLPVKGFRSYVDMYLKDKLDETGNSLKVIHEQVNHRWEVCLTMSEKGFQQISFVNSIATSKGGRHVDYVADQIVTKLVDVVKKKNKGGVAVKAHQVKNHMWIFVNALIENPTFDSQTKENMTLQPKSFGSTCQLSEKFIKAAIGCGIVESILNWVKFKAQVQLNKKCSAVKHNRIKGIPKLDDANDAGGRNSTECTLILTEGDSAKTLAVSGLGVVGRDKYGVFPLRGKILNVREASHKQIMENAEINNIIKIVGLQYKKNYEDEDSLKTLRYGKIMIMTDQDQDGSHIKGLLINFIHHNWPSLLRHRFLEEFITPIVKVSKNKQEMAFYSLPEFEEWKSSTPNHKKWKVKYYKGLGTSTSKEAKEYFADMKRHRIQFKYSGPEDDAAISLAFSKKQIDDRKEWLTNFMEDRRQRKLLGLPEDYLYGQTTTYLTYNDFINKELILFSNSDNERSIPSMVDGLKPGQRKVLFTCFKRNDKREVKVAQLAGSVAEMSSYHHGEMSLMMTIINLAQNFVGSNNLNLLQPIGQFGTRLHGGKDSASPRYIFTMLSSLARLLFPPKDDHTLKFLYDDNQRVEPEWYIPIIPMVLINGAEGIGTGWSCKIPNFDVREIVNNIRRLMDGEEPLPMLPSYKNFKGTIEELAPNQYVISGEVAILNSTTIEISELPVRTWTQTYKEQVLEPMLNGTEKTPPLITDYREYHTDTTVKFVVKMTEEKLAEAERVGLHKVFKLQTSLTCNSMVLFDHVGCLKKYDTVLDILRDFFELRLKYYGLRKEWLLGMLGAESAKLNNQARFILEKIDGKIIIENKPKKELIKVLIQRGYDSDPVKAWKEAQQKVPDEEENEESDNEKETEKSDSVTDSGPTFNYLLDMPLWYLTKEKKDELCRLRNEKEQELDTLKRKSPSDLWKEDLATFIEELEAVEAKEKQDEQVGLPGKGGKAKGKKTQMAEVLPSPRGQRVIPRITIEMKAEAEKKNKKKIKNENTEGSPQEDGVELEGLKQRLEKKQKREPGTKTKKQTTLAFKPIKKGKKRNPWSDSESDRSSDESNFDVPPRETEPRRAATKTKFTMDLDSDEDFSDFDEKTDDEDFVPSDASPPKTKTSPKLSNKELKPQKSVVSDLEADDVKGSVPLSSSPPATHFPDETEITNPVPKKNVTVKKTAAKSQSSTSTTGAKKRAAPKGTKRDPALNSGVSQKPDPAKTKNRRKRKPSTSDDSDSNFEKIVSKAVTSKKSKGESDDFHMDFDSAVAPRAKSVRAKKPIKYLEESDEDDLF

Substance	inhibitory activity for topoisomerase II (topoisomerase II)	inhibition of topoisomerase II activity (relaxation of supercoiled plasmids) [1]	inhibition of topoisomerase II activity (relaxation of supercoiled plasmids) [2]	inhibition of topoisomerase II activity (decatenation of kinetoplast DNA) [3]	inhibition of topoisomerase II activity (decatenation of kinetoplast DNA) [4]
sequence 1013 to 1041 of human topoisomerase II alpha: topoisomerase II fragment, corresponding to sequence 1013 to 1041 of human topoisomerase II alpha, described by Frére Gallois et al.	inhibitory activity	–	–	–	–
Thr-Gin-Leu-Asp-Ile-Leu-Arg-Asp-Leu-Phe-Glu-Leu-Arg -Leu-Lys-Tyr-Tyr-Gly-Leu-Arg-Lys-Glu-Phe-Leu-Leu-Gin-Met -Leu-Gly (TQLDILRDLFELRLKYYGLRKEFLLQMLG) [example 1]	–	totally inhibits	totally inhibits	totally inhibits	totally inhibits
